System: RNAi activity in 293T cells
Test: Modified pGL4.72[hRlucCP] vector luciferase assay of RNAi activity
Assay type: cell-based
Details: overexpression from pEGFP-C1, 10 nM vector-target RNAi, 48 hours, vs EGFP- and G3BP-overexpressing cells (FIG. 30)
Description: Assays for measuring RNAi activity in a cell are available in the art. For example, psiCHECK™-1, psiCHECK™-2, and pGL4.72[hRlucCP]™ vector assay systems provide methods for the measurement of RNAi activity in a cell. In these assays systems, luciferase is used a primary reporter gene and a target sequence (i.e., the target of one or more RNAi molecules) is cloned a multiple cloning region located downstream of the luciferase translational stop codon. Initiation of the RNAi process towards the target gene results in the cleavage and subsequent degradation of the fusion mRNA encoded by the vectors (i.e., upon treatment of the transfected cell with a vector-target RNAi molecule). Measurement of decreased luciferase activity in the transfected cells following treatment with the vector-target RNAi indicates the activity of RNAi in the cell. […]
Additional experiments were performed to determine the effect of PARP13 knockdown on miRNA activity. […] In a second set of experiments, the ability of the vector-target RNAi to reduce the expression of luciferase was measured in 293T cells transfected with pGL4.72[hRlucCP]™ vector, 20 nM vector-target RNAi, and 20 nM of negative RNAi control for PARP13 siRNA (siNeg; AllStars Negative Control siRNA; Qiagen Catalog No. 1027280) or PARP13 siRNA (siPARP13; SEQ ID NO: 40) following treatment with 0 or 30 nM pateamine A for 2 hours. […]

B1: PARP13: PARP13 overexpressed from a pEGFP-C1 plasmid (protein)
chain: ADPEVCCFITKILCAHGGRMALDALLQEIALSEPQLCEVLQVAGPDRFVVLETGGEAGITRSVVATTRARVCRRKYCQRPCDNLHLCKLNLLGRCNYSQSERNLCKYSHEVLSEENFKVLKNHELSGLNKEELAVLLLQSDPFFMPEICKSYKGEGRQQICNQQPPCSRLHICDHFTRGNCRFPNCLRSHNLMDRKVLAIMREHGLNPDVVQNIQDICNSKHMQKNPPGPRAPSSHRRNMAYRARSKSRDRFFQGSQEFLASASASAERSCTPSPDQISHRASLEDAPVDDLTRKFTYLGSQDRARPPSGSSKATDLGGTSQAGTSQRFLENGSQEDLLHGNPGSTYLASNSTSAPNWKSLTSWTNDQGARRKTVFSPTLPAARSSLGSLQTPEAVTTRKGTGLLSSDYRIINGKSGTQDIQPGPLFNNNADGVATDITSTRSLNYKSTSSGHREISSPRIQDAGPASRDVQATGRIADDADPRVALVNDSLSDVTSTTSSRVDDHDSEEICLDHLCKGCPLNGSCSKVHFHLPYRWQMLIGKTWTDFEHMETIEKGYCNPGIHLCSVGSYTINFRVMSCDSFPIRRLSTPSSVTKPANSVFTTKWIWYWKNESGTWIQYGEEKDKRKNSNVDSSYLESLYQSCPRGVVPFQAGSRNYELSFQGMIQTNIASKTQKDVIRRPTFVPQWYVQQMKRGPDHQPAKTSSVSLTATFRPQEDFCFLSSKKYKLSEIHHLHPEYVRVSEHFKASMKNFKIEKIKKIENSELLDKFTWKKSQMKEEGKLLFYATSRAYVESICSNNFDSFLHETHENKYGKGIYFAKDAIYSHKNCPYDAKNVVMFVAQVLVGKFTEGNITYTSPPPQFDSCVDTRSNPSVFVIFQKDQVYPQYVIEYTEDKACVIS
  decrease in the level of miRNA-mediated repression compared to control cells: 3 fold

From US8435961B2, “Methods and compositions for increasing the activity of inhibitory RNA” (Massachusetts Institute of Technology, priority 2009, dated 2013)
